Experimental data: patent US20210115130A1 (Innovent, published 2021)
Blank lines part the entries; values can stand above or below the binder they belong to.

Tests used:
[1] = biological target: T1, IL-23 (R&D Systems, Catalog No. 1290-IL-500/CF) (UniProt Q9NPF7 20-189; P29460 23-328); assay: cell-based or functional assay
T1 sequence (looked up) 1: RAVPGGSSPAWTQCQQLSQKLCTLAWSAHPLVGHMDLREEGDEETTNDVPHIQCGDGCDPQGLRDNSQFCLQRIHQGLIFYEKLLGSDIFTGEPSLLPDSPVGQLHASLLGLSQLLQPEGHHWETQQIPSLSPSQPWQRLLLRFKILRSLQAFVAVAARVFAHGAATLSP
T1 sequence (looked up) 2: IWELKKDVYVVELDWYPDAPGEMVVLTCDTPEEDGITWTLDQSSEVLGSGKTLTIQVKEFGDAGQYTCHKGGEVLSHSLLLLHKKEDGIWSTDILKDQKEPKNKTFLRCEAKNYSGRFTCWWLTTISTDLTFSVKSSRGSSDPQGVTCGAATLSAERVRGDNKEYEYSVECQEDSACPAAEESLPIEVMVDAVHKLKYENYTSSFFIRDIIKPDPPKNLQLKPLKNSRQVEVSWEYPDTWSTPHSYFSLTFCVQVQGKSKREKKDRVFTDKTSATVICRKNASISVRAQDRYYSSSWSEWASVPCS

[2] = biological target: T2, human IL23 protein (human IL12p40 - linker - human IL23p19 - His tag) (human, UniProt P29460 23-328; Q9NPF7 21-189); assay: ForteBio BLI, antibody on AHQ sensor, 1:1 model
T2 construct: range 23-328;range 21-189; Single-chain fusion expressed in Expi293 cells; also called IL-23 antigen
T2 sequence: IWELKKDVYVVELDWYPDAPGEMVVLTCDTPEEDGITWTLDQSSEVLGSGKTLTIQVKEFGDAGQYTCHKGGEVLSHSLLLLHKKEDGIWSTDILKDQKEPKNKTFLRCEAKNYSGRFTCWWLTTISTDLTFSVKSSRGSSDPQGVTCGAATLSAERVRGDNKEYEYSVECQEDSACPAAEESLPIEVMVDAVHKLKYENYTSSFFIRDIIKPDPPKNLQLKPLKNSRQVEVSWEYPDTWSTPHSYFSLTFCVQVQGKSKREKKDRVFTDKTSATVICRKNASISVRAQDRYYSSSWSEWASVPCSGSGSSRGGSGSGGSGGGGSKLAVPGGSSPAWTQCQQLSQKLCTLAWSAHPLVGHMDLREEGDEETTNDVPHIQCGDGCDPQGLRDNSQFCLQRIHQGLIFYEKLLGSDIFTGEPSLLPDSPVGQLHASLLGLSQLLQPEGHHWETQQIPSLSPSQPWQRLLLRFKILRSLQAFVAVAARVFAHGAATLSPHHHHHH
Method: The equilibrium dissociation constant (KD) of the above 17D1 humanized antibody and 17D1-YTE of the present invention to human IL-23p19 was measured by biological optical interferometry (ForteBio).
(§1) The ForteBio affinity assay was performed according to the prior art (Estep, P, et al., High throughput solution based measurement of antibody-antigen affinity and epitope binning MAbs, 2013.5(2): p. 270-8). Briefly, the sensor was equilibrated offline in an assay buffer for […], and was equilibrated online for 60 s to establish a baseline. The purified antibodies obtained as described above were loaded online onto an AHQ sensor (ForteBio) for the ForteBio affinity assay. The sensor with the loaded antibodies was then exposed to 100 nM […] antigens for […] before transferring the sensor to the assay buffer for […] of dissociation to measure the dissociation rate. The kinetic analysis was performed using a 1:1 binding model.

[3] = biological target: cynomolgus monkey IL23 protein (cynomolgus IL12p40 - linker - cynomolgus IL23p19 - His tag) (cynomolgus monkey); assay: ForteBio BLI, antibody on AHQ sensor, 1:1 model
Method: as §1

[4] = biological target: T3, human FcRn (Acro, Catalog No. FCM-H5286) (human, UniProt P55899 24-297; P61769 21-119); assay: ForteBio Octet RED96 BLI, biotinylated antibody on SA sensor, FcRn in solution, 1:1 model
T3 construct: Bought protein
Method: First, the 17D1 humanized antibody, 17D1-YTE, and Gmab (guselkumab) prepared as described above were labeled with biotin, with the molar ratio of antibody to biotin being 1:3. The biotin was removed using a desalting column and the labeled samples were re-measured and stored for later use.
(§2) An appropriate amount of SA sensor (Fortebio, Catalog No. 18-5019) was soaked in the analysis buffer for 30 min. The biotinylated 17D1 humanized antibody, 17D1-YTE, and Gmab were diluted to 100 nM, and human FcRn (Acro, Catalog No. FCM-H5286) was serially two-fold diluted to 5 concentrations (5, 2.5, 1.25, 0.625, 0.3125 μg/mL). The sensor was first equilibrated in the analysis buffer for 120 s. Then the biotinylated antibodies were loaded on the SA sensor for 100 s of immobilization, and the sensor was equilibrated for another 120 s after immobilization. After the baseline was stabilized, the serially diluted FcRns binded to the sensors with the same antibody immobilization level. After 100 s for binding, the sensors were equilibrated in analysis buffer for 120 s to measure the binding and dissociation. The experimental data were analyzed using a 1:1 model.

[5] = biological target: T4, human IL-12 (ACRO Biosystems, Cat #IL2-H4210) (human, UniProt P29459 23-219; P29460 23-328); assay: ForteBio BLI, antibody loaded on AHQ sensor
T4 construct: Bought protein
T4 sequence (looked up) 1: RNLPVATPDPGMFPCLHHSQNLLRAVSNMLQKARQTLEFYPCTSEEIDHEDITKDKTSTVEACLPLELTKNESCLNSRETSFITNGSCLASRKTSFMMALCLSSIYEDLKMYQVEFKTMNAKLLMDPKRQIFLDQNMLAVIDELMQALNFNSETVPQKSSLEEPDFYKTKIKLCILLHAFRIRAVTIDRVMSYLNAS
T4 sequence (looked up) 2: T1 sequence (looked up) 2
Method: as §1
(§3) The equilibrium dissociation constant (KD) for binding of the above 17D1 humanized antibody and 17D1-YTE antibody of the present invention to human interleukin protein human IL-12 (ACRO Biosystems, Cat #IL2-H4210) or human IL-12p40 (ACRO Biosystems, Cat #NK2-H52H7) of the same family was measured by biological optical interferometry (ForteBio) (Table 18).

[6] = biological target: T5, human IL-12p40 (ACRO Biosystems, Cat #NK2-H52H7) (human, UniProt P29460 23-328); assay: ForteBio BLI, antibody loaded on AHQ sensor
T5 construct: Bought protein
T5 sequence (looked up): T1 sequence (looked up) 2
Method: as §1, §3

[7] = biological target: T3, human FcRn (Acro, Catalog No. FCM-H5286); assay: ForteBio Octet RED96 BLI, biotinylated antibody on SA sensor
Method: In this assay, the ForteBio Octet RED96 System was used to detect the kinetic constant (KD) for binding of 17D1 humanized antibody and 17D1-YTE to human FcRn (Acro, Catalog No. FCM-H5286). The affinity of 17D1-YTE to human FcRn was three times those of 17D1 humanized antibody and reference antibody Gmab.
as §2

IC50 (inhibition of IL-23-induced IL-17 secretion in mouse splenic lymphocytes, IL-17 ELISA) [1]: 0.124 µg/mL | Kd [2]: 1.04 nM | koff [2]: 0.00012 s⁻¹ | kon [2]: 115000 M⁻¹ s⁻¹ | Kd [3]: 0.941 nM | Response [3]: 0.284 | koff [3]: 5.8e-05 s⁻¹ | kon [3]: 61600 M⁻¹ s⁻¹ | Kd [4]: 13.2 nM | koff [4]: 0.0148 s⁻¹ | kon [4]: 1.12e+06 M⁻¹ s⁻¹
B1: guselkumab (antibody)
chain 1: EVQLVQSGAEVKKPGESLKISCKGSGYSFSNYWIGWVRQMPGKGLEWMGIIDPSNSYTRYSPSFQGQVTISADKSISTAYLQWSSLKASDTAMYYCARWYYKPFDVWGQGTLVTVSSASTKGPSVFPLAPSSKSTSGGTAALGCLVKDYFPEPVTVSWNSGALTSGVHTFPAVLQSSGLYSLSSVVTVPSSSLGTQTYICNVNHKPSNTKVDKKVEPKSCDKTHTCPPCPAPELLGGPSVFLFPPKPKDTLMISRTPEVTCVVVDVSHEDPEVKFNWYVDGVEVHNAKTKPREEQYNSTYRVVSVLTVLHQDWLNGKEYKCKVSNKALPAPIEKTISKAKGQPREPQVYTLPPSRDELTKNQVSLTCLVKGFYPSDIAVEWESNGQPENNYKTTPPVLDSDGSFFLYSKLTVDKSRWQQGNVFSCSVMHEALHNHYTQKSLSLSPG
chain 2: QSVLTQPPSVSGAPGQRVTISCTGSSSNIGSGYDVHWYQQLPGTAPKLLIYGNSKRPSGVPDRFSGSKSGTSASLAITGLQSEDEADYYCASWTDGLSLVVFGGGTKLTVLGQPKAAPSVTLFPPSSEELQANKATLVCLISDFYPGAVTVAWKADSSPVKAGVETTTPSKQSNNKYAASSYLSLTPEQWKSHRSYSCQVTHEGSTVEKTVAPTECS

IC50 (inhibition of IL-23-induced IL-17 secretion in mouse splenic lymphocytes, IL-17 ELISA) [1]: 0.113 µg/mL | binding result [5]: no binding (tested: 100 nM) | binding result [6]: no binding (tested: 100 nM) | Kd [2]: 1.75 nM | koff [2]: 0.000164 s⁻¹ | kon [2]: 93700 M⁻¹ s⁻¹ | Kd [3]: 1.67 nM | Response [3]: 0.215 | koff [3]: 8.44e-05 s⁻¹ | kon [3]: 50400 M⁻¹ s⁻¹ | Kd [4]: 12.3 nM | koff [4]: 0.0141 s⁻¹ | kon [4]: 1.15e+06 M⁻¹ s⁻¹
B2: 17D1 humanized antibody (antibody, human IgG1, kappa)
heavy: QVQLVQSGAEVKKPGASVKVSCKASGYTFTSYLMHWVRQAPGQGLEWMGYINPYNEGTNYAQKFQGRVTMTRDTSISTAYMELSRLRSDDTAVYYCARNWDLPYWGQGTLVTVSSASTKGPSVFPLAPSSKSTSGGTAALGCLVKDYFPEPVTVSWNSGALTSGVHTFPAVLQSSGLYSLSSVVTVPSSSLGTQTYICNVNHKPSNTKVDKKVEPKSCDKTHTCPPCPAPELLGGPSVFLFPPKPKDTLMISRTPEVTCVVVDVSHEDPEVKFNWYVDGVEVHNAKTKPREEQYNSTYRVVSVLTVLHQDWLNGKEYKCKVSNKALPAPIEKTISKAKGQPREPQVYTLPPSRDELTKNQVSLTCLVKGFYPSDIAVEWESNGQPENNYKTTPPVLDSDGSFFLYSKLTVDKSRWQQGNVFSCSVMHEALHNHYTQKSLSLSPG
light: DIQMTQSPSSLSASVGDRVTITCRASQSISDYLHWYQQKPGKAPKLLIKYASQSMSGVPSRFSGSGSGSDFTLTISSLQPEDFATYYCQQGHSFPFTFGQGTKLEIKRTVAAPSVFIFPPSDEQLKSGTASVVCLLNNFYPREAKVQWKVDNALQSGNSQESVTEQDSKDSTYSLSSTLTLSKADYEKHKVYACEVTHQGLSSPVTKSFNRGEC
notes: Biotinylated for the FcRn assay; also called humanized antibody 17D1; copies: 2 + 2

IC50 (inhibition of IL-23-induced IL-17 secretion in mouse splenic lymphocytes, IL-17 ELISA) [1]: 0.114 µg/mL | binding result [5]: no binding (tested: 100 nM) | binding result [6]: no binding (tested: 100 nM) | Kd [2]: 0.611 nM | koff [2]: 5.69e-05 s⁻¹ | kon [2]: 93100 M⁻¹ s⁻¹ | Kd [3]: 0.37 nM | Response [3]: 0.207 | koff [3]: 2.16e-05 s⁻¹ | kon [3]: 58400 M⁻¹ s⁻¹ | fold affinity against 17D1 humanized antibody and Gmab [7]: 3 fold | Kd [4]: 3.34 nM | koff [4]: 0.0033 s⁻¹ | kon [4]: 988000 M⁻¹ s⁻¹
B3: 17D1-YTE (antibody, human IgG1, kappa)
heavy: QVQLVQSGAEVKKPGASVKVSCKASGYTFTSYLMHWVRQAPGQGLEWMGYINPYNEGTNYAQKFQGRVTMTRDTSISTAYMELSRLRSDDTAVYYCARNWDLPYWGQGTLVTVSSASTKGPSVFPLAPSSKSTSGGTAALGCLVKDYFPEPVTVSWNSGALTSGVHTFPAVLQSSGLYSLSSVVTVPSSSLGTQTYICNVNHKPSNTKVDKKVEPKSCDKTHTCPPCPAPELLGGPSVFLFPPKPKDTLYITREPEVTCVVVDVSHEDPEVKFNWYVDGVEVHNAKTKPREEQYNSTYRVVSVLTVLHQDWLNGKEYKCKVSNKALPAPIEKTISKAKGQPREPQVYTLPPSRDELTKNQVSLTCLVKGFYPSDIAVEWESNGQPENNYKTTPPVLDSDGSFFLYSKLTVDKSRWQQGNVFSCSVMHEALHNHYTQKSLSLSPG
light: B2 light
notes: Biotinylated for the FcRn assay; also called 17D1-YTE antibody; copies: 2 + 2
